Measurements reported in patent US11446371B2, “Targeting of ligand binding sites in ClfA” (THE TEXAS A&M UNIVERSITY SYSTEM, priority 2015, dated 2022).
Numbering of substitutions follows the chain as printed. Entries after “also recorded” stand apart in the source; their conditions may differ. Where a SMILES comes first, the peptide text is derived from it.

T1: ClfACC (Staphylococcus aureus, UniProt Q53653, D327C/K541C)
T1 construct: made in house; host or cells: E. coli Topp3
T1 sequence (Q53653 229-545 D327C/K541C limits assumed): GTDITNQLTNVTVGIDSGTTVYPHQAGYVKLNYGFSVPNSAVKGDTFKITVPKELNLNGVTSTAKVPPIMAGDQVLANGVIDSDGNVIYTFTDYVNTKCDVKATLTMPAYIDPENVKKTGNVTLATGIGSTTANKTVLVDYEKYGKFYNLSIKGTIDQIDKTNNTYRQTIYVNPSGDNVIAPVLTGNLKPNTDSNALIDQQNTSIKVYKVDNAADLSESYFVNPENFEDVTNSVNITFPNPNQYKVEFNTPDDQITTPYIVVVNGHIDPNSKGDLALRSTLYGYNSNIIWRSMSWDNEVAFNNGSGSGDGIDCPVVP

T2: immobilized human Fg (Homo sapiens, UniProt P02671+P02675+P02679)
T2 construct: immobilized intact Fg
T2 sequence (P02671 20-644 isoform P02671-2 limits assumed): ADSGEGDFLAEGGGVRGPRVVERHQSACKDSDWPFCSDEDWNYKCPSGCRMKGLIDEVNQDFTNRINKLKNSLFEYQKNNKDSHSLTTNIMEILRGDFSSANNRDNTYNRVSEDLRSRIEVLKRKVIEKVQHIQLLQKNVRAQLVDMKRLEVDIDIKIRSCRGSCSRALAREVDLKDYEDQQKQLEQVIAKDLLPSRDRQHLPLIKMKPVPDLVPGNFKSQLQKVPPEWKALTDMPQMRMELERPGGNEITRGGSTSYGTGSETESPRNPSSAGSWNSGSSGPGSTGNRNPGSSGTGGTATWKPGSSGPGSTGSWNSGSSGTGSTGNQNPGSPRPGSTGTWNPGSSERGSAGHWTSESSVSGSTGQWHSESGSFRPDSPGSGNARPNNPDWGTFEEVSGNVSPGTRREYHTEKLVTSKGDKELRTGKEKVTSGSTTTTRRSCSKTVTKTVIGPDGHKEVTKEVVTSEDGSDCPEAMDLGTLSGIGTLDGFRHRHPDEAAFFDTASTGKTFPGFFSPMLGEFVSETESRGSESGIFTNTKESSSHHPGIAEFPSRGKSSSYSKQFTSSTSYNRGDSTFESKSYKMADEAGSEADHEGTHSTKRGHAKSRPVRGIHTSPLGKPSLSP
T2 sequence (P02675 31-491): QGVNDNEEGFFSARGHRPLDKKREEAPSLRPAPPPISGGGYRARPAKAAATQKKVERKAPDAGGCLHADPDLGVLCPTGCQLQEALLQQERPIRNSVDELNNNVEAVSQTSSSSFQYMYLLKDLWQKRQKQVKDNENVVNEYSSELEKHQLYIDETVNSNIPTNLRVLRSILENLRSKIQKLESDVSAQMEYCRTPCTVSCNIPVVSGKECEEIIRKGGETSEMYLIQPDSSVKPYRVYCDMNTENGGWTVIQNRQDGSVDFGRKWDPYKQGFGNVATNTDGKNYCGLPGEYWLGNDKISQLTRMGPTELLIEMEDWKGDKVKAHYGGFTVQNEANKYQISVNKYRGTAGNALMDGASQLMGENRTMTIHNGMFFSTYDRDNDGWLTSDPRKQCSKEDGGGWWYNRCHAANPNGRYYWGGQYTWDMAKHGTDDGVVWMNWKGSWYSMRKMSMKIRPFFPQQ
T2 sequence (P02679 27-437 isoform P02679-2 limits assumed): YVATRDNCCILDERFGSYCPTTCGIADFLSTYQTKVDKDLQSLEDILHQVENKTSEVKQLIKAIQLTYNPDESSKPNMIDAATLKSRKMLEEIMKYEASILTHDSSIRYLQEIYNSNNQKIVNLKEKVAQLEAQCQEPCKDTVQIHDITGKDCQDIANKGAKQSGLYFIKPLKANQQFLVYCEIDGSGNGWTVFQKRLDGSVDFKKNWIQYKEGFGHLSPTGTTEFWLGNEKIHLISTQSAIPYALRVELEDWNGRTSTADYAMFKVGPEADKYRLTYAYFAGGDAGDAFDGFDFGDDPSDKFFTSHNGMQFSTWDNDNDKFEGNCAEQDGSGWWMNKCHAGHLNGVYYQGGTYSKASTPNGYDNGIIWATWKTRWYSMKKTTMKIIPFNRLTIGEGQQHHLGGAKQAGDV

B1: ClfA370-559: recombinant form of the ClfA N3 subdomain (protein)
chain: EKYGKFYNLSIKGTIDQIDKTNNTYRQTIYVNPSGDNVIAPVLTGNLKPNTDSNALIDQQNTSIKVYKVDNAADLSESYFVNPENFEDVTNSVNITFPNPNQYKVEFNTPDDQITTPYIVVVNGHIDPNSKGDLALRSTLYGYNSNIIWRSMSWDNEVAFNNGSGSGDGIDKPVVPEQPDEPGEIEPIPE
B2: ClfAPWY (protein)
chain: VAADAPAAGTDITNQLTNVTVGIDSGTTVYPHQAGYVKLNYGFSVPNSAVKGDTFKITVPKELNLNGVTSTAKVPPIMAGDQVLANGVIDSDGNVIYTFTDYVNTKDDVKATLTMPAYIDPENVKKTGNVTLATGIGSTTANKTVLVDYEKYGKFYNLSIKGTIDQIDKTNNTYRQTIYVNPSGDNVIAPVLTGNLKPNTDSNALIDQQNTSIKVYKVDNAADLSESYFVNPENFEDVTNSVNITFANPNQYKVEFNTPDDQITTPYIVVVNGHIDPNSKGDLALRSTLYGANSNIIARSMSWDNEVAFNNGSGSGDGIDKPVVPEQPDEPGEIEPIPE
B3: ClfA221-559: recombinant ClfA residues 221-559 (N2N3 subdomains) from S. aureus strain Newman (protein)
chain: B2 chain with A247P, A292Y, A298W

Assays:
Fg binding to ClfA = Fg binding to ClfA (Staphylococcus aureus, UniProt Q53653); test: Reduction of Fg binding to ClfA by synthetic Fg γ-peptide; parameters: species or system S. aureus; conditions: even at high concentrations
ClfACC = target: T1, ClfACC; test: ITC, synthetic C-terminal γ-chain peptide titrated into ClfACC; assay type: binding, S. aureus; conditions: peptide titrated into cell containing ClfACC
immobilized Tefibazumab = test: SPR binding of ClfA221-559 variants to immobilized Tefibazumab; conditions: 0.1 μM ClfA221-559 variant
From the text: Surface Plasmon Resonance.
FIG. 3A is a ribbon diagram of ClfA-N3 domain showing the positions of PWY. The Fg γ-peptide is shown as a ribbon to show the location of the Fg γ-peptide binding site. […] The amino acid substitutions in the variant proteins were made at the mAb binding site. FIG. 3C is a graph of ClfAPWY and Fg-γ P16 peptide interaction measured by ITC.

immobilized human Fg [1] = target: T2, immobilized human Fg; test: SPR binding of ClfA proteins to immobilized Fg; conditions: 0.1 μM ClfA221-559 variant
Protocol: (§1) Surface Plasmon Resonance. Surface plasmon resonance-based binding experiments were performed at 25° C. on a Biacore 3000 (GE Healthcare/Biacore, Uppsala, Sweden). Phosphate buffered saline (PBS-T: 8.06 mM Na2HPO4, 1.94 mM KH2PO4, 2.7 mM KCl and 137 mM NaCl, pH 7.4, and 0.005% Tween-20) was used as running buffer for immobilization and binding experiments. Flow rate of 5 μl/min was used during immobilization and a higher rate 30 or 50 μl/min for binding experiments. The fibrinogen (Fg) surface was prepared on a CM5 sensor chip via standard amine-coupling chemistry. A Fg solution (10 μl of 20 μg/ml in sodium citrate, pH5.5) was injected to an activated (4 min) flow cell. After deactivation, about 7000 resonance units (RU) of Fg were immobilized. A reference surface was prepared with activation and deactivation steps but no protein coupled. […] For GST fusion protein capturing, approximately 11000 RU of goat anti-GST antibody (GE Healthcare/Biacore) were immobilized simultaneously on two flow cells on a CM5 sensor chip. GST-tagged Fg γ-peptide (20 μg/ml in PBS-T) was captured by the antibody and created a ligand surface (about 700 RU). The other flow cell with GST captured (about 900 RU) served as a reference surface. […] All SPR responses were baseline corrected by subtracting response generated from reference surface.
(§2) Since most of the known and putative Fg interactive sites in ClfA are located within the N3 subdomain we examined the interactions of a recombinant form of N3 (ClfA370-559) to the different forms of immobilized Fg.

immobilized human Fg [2] = test: SPR binding of ClfA proteins to immobilized Fg; conditions: immobilized Fg, Fg D-fragment, GST-γ-peptide
Protocol: as §1, §2

Molecule | binding to immobilized Tefibazumab (immobilized Tefibazumab) | binding to immobilized human Fg (immobilized human Fg [1]) | fold difference in KD between binding to γ-peptide and to Fg or Fg D-fragment (immobilized human Fg [2]) | further results
CC(C)C[C@H](NC(=O)[C@H](Cc1c[nH]cn1)NC(=O)[C@H](Cc1c[nH]cn1)NC(=O)[C@H](CCC(N)=O)NC(=O)[C@H](CCC(N)=O)NC(=O)CNC(=O)[C@H](CCC(=O)O)NC(=O)CN)C(=O)NCC(=O)NCC(=O)N[C@@H](C)C(=O)N[C@@H](CCCCN)C(=O)N[C@@H](CCC(N)=O)C(=O)N[C@@H](C)C(=O)NCC(=O)N[C@@H](CC(=O)O)C(=O)N[C@H](C(=O)O)C(C)C [Fg γ-peptide] (H-GEGQQHHLGGAKQAGDV-OH; N-terminus and C-terminus assumed) | – | – | – | maximum reduction of Fg binding to ClfA (Fg binding to ClfA): ~50%; Kd (ClfACC): 9 µM
Y512A | slightly reduced binding | reduced binding | – | –
B1 | – | – | about 10 fold | –
B2 | almost completely abolished; also recorded: completely lost its ability to bind | minimal binding | – | –
B3 | – | – | 4-7 fold | –
